US6969760B2, “Jak kinases and regulation of cytokine signal transduction” (St. Jude Children's Research Hospital, priority 1993, dated 2005)

Key:
[1] = tested on: wild-type 2C4 and γ-1/Jak2 transfectants; experiment: IFN-γ response (cell surface markers, IFN-inducible mRNAs) of wild-type 2C4 and γ-1/Jak2 transfectants; assay type: cell-based, human
Description: Cell surface expression of transfected CD2 and endogenous Class I and II HLAs in response to IFNs-α or -γ on wild-type 2C4, mutant γ-1 cells and mutant γ-1 cells stably transfected with a murine Jak2 cDNA expression construct. Data was generated for an enriched population and a clone of γ-1/Jak2 transfectants using FACSCAN (BECTON DICKINSON) analyses (3000 data points, Consort 30). Cells were plated at 5×10^5/10 cm dish and treated the following day with 10^3 IU/ml of a highly purified mixture of α-IFNs (WELLFERON 1.5×10^8 IU/mg protein, kindly supplied by WELLCOME […]. LABORATORIES, Beckenham, UK) or recombinant human IFN-γ (4×10^7 IU/mg protein, obtained from Dr. Gunter Adolf, Ernst Boehringer Institut fur Arzneimittelforschung, Vienna, Austria, and commercially or readily available). […]
IFN-inducible gene expression in wild type 2C4, mutant γ-1 and mutant γ-1/Jak2 transfected cells: mRNA expression in response to IFNs-α or -γ was monitored by RNase protection using probes to detect the IFN-inducible mRNAs of: the 9-27, 6-16, 2-5A synthetase and ISGF3γ genes and the p91 and p84 alternatively spliced products of the p91/84 ISGF3α gene and the IRF1 and GBP genes. […]

[2] = tested on: EMC virus; experiment: Antiviral assay versus EMC virus; assay type: cell-based; conditions: per 1 fmole of 125I-IFN-γ
Description: Binding of ^125I-labeled IFN-γ to 2C4 and mutant γ-1 cells: ^125I-IFN-γ (667 Ci/mMole, Amersham International, UK) treatment was of triplicate samples of 10^6 cells for 90 min at 0° C. Non-specific binding was subtracted. It was determined in parallel in the presence of a 200 fold excess of unlabeled IFN-γ and represented approximately 40% of the total radioactivity bound. In a parallel antiviral assay versus EMC virus 1 fmole of ^125I-IFN-γ was equivalent to 0.15 IU. Specific binding at the highest IFN-γ concentration here corresponded to about 6000 receptors per cell.

[3] = tested on: Jak3 and Jak1; experiment: IL-2/IL-4-induced tyrosine phosphorylation of Jaks in CTLL cells; assay type: cell-based, murine
Description: IL-2 and IL-4 stimulation of Jak1 and Jak3 tyrosine phosphorylation and activation of Jak3 in vitro kinase activity. FIG. 9A: CTLL cells were deprived of growth factors for 14 hr and were either left unstimulated (lanes 1, 4, 7 and 10), were stimulated with 100 U/ml with IL-2 (Cetus) for 10 min (lanes 2,5,8 and 11) or were stimulated with 100 ng/ml of IL-4 (R&D) for 10 min (lanes 3, 6, 9 and 12). Extracts were prepared as previously described (Witthuhn et al., Cell: 227-236 (1993)) and used for immunoprecipitation with the indicated antisera. The immunoprecipitates were resolved by SDS-PAGE, electrophoretically transferred to nitrocellulose and the membranes were probed with the 4G10 monoclonal antibody (UBI) against phosphotyrosine. FIG. 9B: CTLL cells were deprived of growth factors for 14 hr and were either unstimulated (lane 1), stimulated with IL-2 (lane 2) or stimulated with IL-4 (lane 3) as above. Extracts were prepared and used for immunoprecipitation with the Jak3/Jak1 cross-reactive antipeptide antiserum against Tyk2. The immunoprecipitates were used in in vitro kinase assays as previously described (Witthuhn et al., Cell: 227-236 (1993)) and the products resolved by SDS-PAGE and visualized by autoradiography. […]

B1: IFN-γ: recombinant human IFN-γ (4×10^7 IU/mg protein) (protein)
chain: QDPYVKEAENLKKYFNAGHSDVADNGTLFLGILKNWKEESDRKIMQSQIVSFYFKLFKNFKDDQSIQKSVETIKEDMNVKFFNSNKKKRDDFEKLTNYSVTDLNVQRKAIHELIQVMAELSPAAKTGKRKRSQMLFRGRRASQ
IFN-γ concentration giving an approaching maximal response [1]: 100 IU/ml
IFN-γ concentration giving a clear response ([1]; dose response curves essentially identical): 10 IU/ml

B2: ^125I-IFN-γ: 125I-labeled IFN-γ (667 Ci/mMole, Amersham) (protein)
chain: B1 chain
antiviral activity equivalent of 1 fmole [2]: 0.15 IU

B3: IL-4: IL-4 (R&D), cytokine (protein, UniProt P05112 25-153, looked up)
Interleukin-4: HKCDITLQEIIKTLNSLTEQKTLCTELTVTDIFAASKNTTEKETFCRAATVLRQFYSHHEKDTRCLGATAQQFHRHKQLIRFLKRLDRNLWGLAGLNSCPVKEANQSTLENFLERLKTIMREKYSKCSS
onset of phosphorylation of the Jaks following stimulation [3]: detectable within one minute
